Molecular target: T1, HLA-A*02:01 (peptide-receptive MHC class I molecule of the UV-ligand exchange assay) (human)
T1 construct: MHC monomer first loaded with a UV-sensitive peptide (not identified) that is cleaved by UV light and exchanged for the test peptide; captured on streptavidin plates
Assay: UV-ligand exchange, anti-b2m ELISA; peptide exchange yield grade (>=10% = +; >=20% = ++; >=50 = +++; >=75% = ++++)
Excerpt: Candidate peptides for T cell based therapies according to the present invention were further tested for their MHC binding capacity (affinity). The individual peptide-MHC complexes were produced by UV-ligand exchange, where a UV-sensitive peptide is cleaved upon UV-irradiation, and exchanged with the peptide of interest as analyzed. Only peptide candidates that can effectively bind and stabilize the peptide-receptive MHC molecules prevent dissociation of the MHC complexes. To determine the yield of the exchange reaction, an ELISA was performed based on the detection of the light chain (β2m) of stabilized MHC complexes. The assay was performed as generally described in Rodenko et al. (Rodenko et al., 2006).
96 well MAXISorp plates (NUNC) were coated aver night with 2 ug/ml streptavidin in PBS at room temperature, washed 4× and blocked for 1 h at 37° C. in 2% BSA containing blocking buffer. Refolded HLA-A*02:01/MLA-001 monomers served as standards, covering the range of 15-500 ng/ml. Peptide-MHC monomers of the UV-exchange reaction were diluted 100 fold in blocking buffer. Samples were incubated for 1 h at 37° C., washed four times, incubated with 2 ug/ml HRP conjugated anti-02m for 1 h at 37° C., washed again and detected with TMB solution that is stopped with […]. Absorption was measured at 450 nm. Candidate peptides that show a high exchange yield (preferably higher than 50%, most preferred higher than 75%) are generally preferred for a generation and production of antibodies or fragments thereof, and/or T cell receptors or fragments thereof, as they show sufficient avidity to the MHC molecules and prevent dissociation of the MHC complexes.

Row | Binder | peptide exchange yield [%]
1 | GQDVGRYQV (synthetic peptide; source gene SSR4) [GQDVGRYQV (SEQ ID NO: 79)] | 20 to 50
2 | HLIAEIHTA (synthetic peptide; source gene PTHLH; also called PTHL-001) [HLIAEIHTA (SEQ ID NO: 9)] | 50 to 75
3 | AVLPHVDQV (synthetic peptide; source gene KIAA0947) [AVLPHVDQV (SEQ ID NO: 81)] | 50 to 75
4 | ALLDGGSEAYWRV (synthetic peptide; source gene FAM83A) [ALLDGGSEAYWRV (SEQ ID NO: 8)] | 50 to 75
5 | HLLGHLEQA (synthetic peptide; source gene PRDM15) [HLLGHLEQA (SEQ ID NO: 82)] | 50 to 75
6 | FLDNGPKTI (synthetic peptide; source gene EIF4G2) [FLDNGPKTI (SEQ ID NO: 87)] | 50 to 75
7 | ALQEALENA (synthetic peptide; source gene NUP155) [ALQEALENA (SEQ ID NO: 80)] | 20 to 50
8 | ALADGVVSQA (synthetic peptide; source gene GPKOW) [ALADGVVSQA (SEQ ID NO: 83)] | 50 to 75
9 | ILASLATSV (synthetic peptide; source gene TUBGCP2) [ILASLATSV (SEQ ID NO: 74)] | 50 to 75

Continued, values first:

Row | peptide exchange yield [%] | Binder
10 | 20 to 50 | SLADSLYNL (synthetic peptide; source gene CAMSAP2) [SLADSLYNL (SEQ ID NO: 89)]
11 | 50 to 75 | KVADYIPQL (synthetic peptide; source gene GLS) [KVADYIPQL (SEQ ID NO: 76)]
12 | ≥ 75 | KLIDDVHRL (synthetic peptide; source gene SRPR) [KLIDDVHRL (SEQ ID NO: 91)]
13 | 50 to 75 | VLINTSVTL (synthetic peptide; source gene ZNF292) [VLINTSVTL (SEQ ID NO: 93)]
14 | 50 to 75 | SLAESLDQA (synthetic peptide; source gene DIS3) [SLAESLDQA (SEQ ID NO: 84)]
15 | 50 to 75 | SIYEYYHAL (synthetic peptide; source gene HIF1A) [SIYEYYHAL (SEQ ID NO: 90)]
16 | 50 to 75 | SLDENSDQQV (synthetic peptide; source gene S100A2) [SLDENSDQQV (SEQ ID NO: 10)]
17 | 20 to 50 | VLVPYEPPQV (synthetic peptide; source gene TP63) [VLVPYEPPQV (SEQ ID NO: 77)]
18 | 20 to 50 | SILRHVAEV (synthetic peptide; source gene EIF2S1) [SILRHVAEV (SEQ ID NO: 92)]
19 | 20 to 50 | KVANIIAEV (synthetic peptide; source gene RAP1GDS1) [KVANIIAEV (SEQ ID NO: 78)]
20 | 50 to 75 | KITEAIQYV (synthetic peptide; source gene RORA) [KITEAIQYV (SEQ ID NO: 73)]
21 | ≥ 75 | NIIELVHQV (synthetic peptide; source gene SYK) [NIIELVHQV (SEQ ID NO: 85)]

Reference: patent US20260028387A1 (published 2026)
